Laboratory results from PMC5663475, “SAV1 promotes Hippo kinase activation through antagonizing the PP2A phosphatase STRIPAK” (eLife, 2017).
Values belong to the molecule of their own block, whether it stands above or below them. Non-standard residues stand in square brackets, D forms with d. Residues, ends and D or L forms follow the SMILES beside them. pT = C[C@@H](OP(=O)(O)O)[C@H](N)C(=O)O

Experiments:
MOB1^33-216 = molecular target: T1, MOB1^33-216 (Homo sapiens, UniProt Q9H8S9); experiment: ITC, MOB1^33-216 with phospho-MST2 peptides; assay type: binding; details: MicroCal iTC200, 20 °C, 20 mM Tris pH 8.0, 50 mM NaCl, 50 µM protein titrated with 500 µM peptide, measured as controls
T1 construct: recombinant MOB1^33-216 and pT378-MST2 peptides
T1 sequence (Q9H8S9 33-216): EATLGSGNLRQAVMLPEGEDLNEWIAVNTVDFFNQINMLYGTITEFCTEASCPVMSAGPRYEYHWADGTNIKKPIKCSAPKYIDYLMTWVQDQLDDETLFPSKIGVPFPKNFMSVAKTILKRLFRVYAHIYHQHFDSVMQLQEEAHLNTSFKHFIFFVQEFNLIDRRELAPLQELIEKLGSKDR
Method: The binding affinities between purified recombinant human SLMAP-FHA (residues 1–140) and the phospho-MST2 peptides were measured using a MicroCal iTC200 calorimeter (GE Healthcare) at 20 °C. The binding affinities between recombinant MOB1^33-216 and pT378-MST2 peptides were measured as controls. Ratio of protein to peptide concentration was 1:10 for each experiment. A 50 µM SLMAP-FHA or MOB1^33-216 sample in the buffer containing 20 mM Tris, pH 8.0, 50 mM NaCl was titrated with 500 µM of phospho-MST2 peptide in the same buffer. All phospho-MST2 peptides were synthesized with the following sequences: pT325-MST2^320-329, ELDSHpTMVKT; pT336-MST2^331-340, VESVGpTMRAT; pT378-MST2^373-382, EEEDGpTMKRN; and pT378-MST2^371-401, DEEEEDGp[…]. Due to low solubility of pT325-MST2^320-329, 5% (v/v) DMSO was added to both protein and peptide buffers. Peptide concentration was measured using the spectrophotometer at wavelength λ = 205 nm. In all cases, thermograms were integrated using NITPIC method ([Keller et al., 2012]), imported to the SEDPHAT software ([Zhao et al., 2015]), and binding-model fits (A + B < ->AB) were made by fixing the protein concentration adjustment coefficients and allowing the software to adjust peptide concentration by a correction coefficient, as it is not 100% accurate due to the nature of the concentration measurements. […]

SLMAP = SLMAP (UniProt Q14BN4); experiment: anti-FLAG IP, anti-SLMAP blot; details: reference: MST2 wild type; sites T325,T336,T378
human SAV1 WW2 (human) = human SAV1 WW2 (human) (UniProt Q9H4B6); experiment: SEC; recombinant SAV1 WW1 and WW2 on a Superdex 75 gel filtration column
[1] = molecular target: T2, MST2-FL (recombinant full-length MST2) (human, UniProt Q13188 1-491); experiment: pull-down; GST-SLMAP FHA on glutathione-Sepharose beads as bait, purified MST2 proteins in TBS (50 mM Tris pH 7.5, 150 mM NaCl) with 0.05% Tween, 2 h; Coomassie-stained gel; details: both partners purified
T2 construct: MST2, human, full length; also called full-length (FL) MST2; source: E. coli BL21 (DE3)-T1R, purified; alone or co-expressed and co-purified with SAV1 C-terminal fragments
T2 sequence (looked up): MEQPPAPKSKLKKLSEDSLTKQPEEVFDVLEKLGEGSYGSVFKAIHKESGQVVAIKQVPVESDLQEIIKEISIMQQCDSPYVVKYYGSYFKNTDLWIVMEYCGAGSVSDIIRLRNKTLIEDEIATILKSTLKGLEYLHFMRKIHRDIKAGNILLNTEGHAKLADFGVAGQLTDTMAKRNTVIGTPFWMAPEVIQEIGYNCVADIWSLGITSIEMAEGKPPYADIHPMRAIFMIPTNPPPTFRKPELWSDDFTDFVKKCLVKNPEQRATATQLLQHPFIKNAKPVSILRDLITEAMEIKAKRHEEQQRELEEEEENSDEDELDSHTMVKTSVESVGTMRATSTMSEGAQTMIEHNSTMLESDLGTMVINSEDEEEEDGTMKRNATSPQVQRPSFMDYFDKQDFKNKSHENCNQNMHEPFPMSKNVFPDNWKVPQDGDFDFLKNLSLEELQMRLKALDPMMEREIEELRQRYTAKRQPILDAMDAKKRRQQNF

[2] = molecular target: the molecule itself; experiment: AUC + SEC; sedimentation velocity at 4 °C, 50,000 rpm, 20 mM Tris pH 8.0, 200 mM NaCl, 5 mM MgCl2; gel filtration on Superdex 200; co-expressed and co-purified MST2-FL/SAV1 fragment complexes
MST2 [3] = experiment: MST2-SAV1 autophosphorylation (pT180); assay type: biochemical, human; details: 2.5 µM MST2-SAV1 complex, dephosphorylated by 0.5 µM PP2A A-C, then 5 µM okadaic acid; 2 mM ATP, anti-pT180 blot; at least two independent experiments
Method: For assaying MST2-SAV1 autophosphorylation, 2.5 µM MST2-SAV1-ΔN198 or MST2-SAV1-ΔN268 was dephosphorylated by 0.5 µM PP2A A-C core complex for 30 min at room temperature. Okadaic acid was then added to a final concentration of 5 µM and the reaction mixture was incubated on ice for another 30 min. The reaction mixture was diluted by a ratio of 1:5 at room temperature with a kinase reaction buffer containing 50 mM Tris (pH 7.5), 150 mM NaCl, 5 mM MgCl2, 2 mM ATP, and 1 mM DTT. At different time intervals, autophosphorylation was terminated by adding 2X SDS loading buffer and boiling for 5 min in 100 °C water bath. All samples were separated by SDS-PAGE and blotted by a specific antibody against pT180 of MST2.

MST2 [4] = experiment: In vitro MST2 kinase assay using MOB1 as substrate; assay type: biochemical, human; details: 0.5 nM MST2, 0.4 µM MOB1, pT35-MOB1 quantitative Western blot; two biological replicates
Method: For in vitro kinase assays, 0.4 μM MST2-FL or MST2-ΔL was incubated in the kinase reaction buffer containing 50 mM Tris (pH 7.5), 150 mM NaCl, 10 mM MgCl2, 1 mM ATP, 1 mM DTT, and 0.1 μCi/μl γ-^32P-ATP with 40 μM myelin basic protein (MBP). At different time intervals, an aliquot of reaction mixture was added with equal volume of 2X SDS sample buffer and followed by boiling for 5 min in 100 °C water bath. All samples were separated by SDS-PAGE and analyzed by autoradiography. For in vitro kinase assays using MOB1 as substrate, 0.5 nM MST2 was incubated with 0.4 µM recombinant purified MOB1 in the kinase reaction buffer. The phosphorylated MOB1 was analyzed by quantitative Western blotting using a specific antibody against pT35 of MOB1 (Cell Signaling). The signals were quantified with the Odyssey LI-COR imaging system. For in vitro kinase assays using GST-MST2 D146N as substrate, the kinase reaction was performed with MST2 KD for 30 min at room temperature.

[5] = molecular target: PP2A A subunit (recombinant) (human) (UniProt P30153)
Chain of PP2A A subunit (recombinant) (human) (P30153 whole entry): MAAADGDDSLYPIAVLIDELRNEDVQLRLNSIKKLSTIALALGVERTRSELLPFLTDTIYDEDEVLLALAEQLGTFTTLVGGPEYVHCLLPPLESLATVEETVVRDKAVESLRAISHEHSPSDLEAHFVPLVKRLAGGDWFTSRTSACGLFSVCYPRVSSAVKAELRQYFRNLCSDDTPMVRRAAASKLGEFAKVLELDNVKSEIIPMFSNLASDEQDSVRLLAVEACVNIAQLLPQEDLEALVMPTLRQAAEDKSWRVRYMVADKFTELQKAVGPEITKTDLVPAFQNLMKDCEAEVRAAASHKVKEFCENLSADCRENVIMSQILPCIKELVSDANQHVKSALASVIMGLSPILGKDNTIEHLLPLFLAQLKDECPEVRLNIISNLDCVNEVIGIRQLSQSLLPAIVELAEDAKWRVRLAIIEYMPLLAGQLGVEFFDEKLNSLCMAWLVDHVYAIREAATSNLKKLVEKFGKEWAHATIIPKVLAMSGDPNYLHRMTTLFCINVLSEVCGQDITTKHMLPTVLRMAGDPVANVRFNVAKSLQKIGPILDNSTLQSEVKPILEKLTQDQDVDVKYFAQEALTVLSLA

PP2A A-C = experiment: In vitro PP2A inhibition assay (dephosphorylation of MST2 pT180); assay type: biochemical; details: 0.1 µM PP2A A-C, 1 µM MST2 KD, quantitative Western blot
Method: For PP2A A-C phosphatase inhibition assays, 0.1 µM PP2A A-C was mixed with the indicated concentrations of SAV1^1-90 and incubated at room temperature for 15 min. […] After 30 min incubation, 15 µl reaction mixture was quenched by the addition of the same volume of 2X SDS sample buffer and boiled for 5 min. The remaining pT180 of MST2 was analyzed by quantitative Western blot using a specific antibody against pT180 of MST2.

PP2A A subunit = experiment: Gel filtration co-fractionation of SAV1^1-90 with PP2A A subunit; assay type: binding; details: Superdex 200 gel filtration; PP2A A : SAV1^1-90 1:6 molar ratio; 20 mM Tris pH 8.0, 50 mM NaCl, 1 mM TCEP
Method: The N-terminal fragment of SAV1^1-90 was purified by denaturation method using 8 M urea according to the manufacturer’s instructions (Qiagen). SAV1^1-90 was refolded overnight at 4°C in a buffer containing 50 mM Tris (pH 7.5), 150 mM NaCl, 5 mM MgCl2, and 1 mM DTT. To obtain the PP2A A and SAV1^1-90 complex, PP2A A was mixed with refolded SAV1^1-90 at a 1:6 molar ratio and further purified by a Superdex 200 column equilibrated with a buffer containing 20 mM Tris (pH 8.0), 50 mM NaCl, and 1 mM TCEP. For comparison, PP2A A and SAV1^1-90 alone was run under the same condition, respectively.

- Kd (MOB1^33-216): 9.95 µM
Molecule: CSCC[C@H](NC(=O)[C@@H](NC(=O)CNC(=O)[C@H](CC(=O)O)NC(=O)[C@H](CCC(=O)O)NC(=O)[C@H](CCC(=O)O)NC(=O)[C@@H](N)CCC(=O)O)[C@@H](C)OP(=O)(O)O)C(=O)N[C@@H](CCCCN)C(=O)N[C@@H](CCCNC(=N)N)C(=O)N[C@@H](CC(N)=O)C(=O)O [pT378-MST2^373-382] (H-EEEDG[pT]MKRN-OH)

- binding against the reference (SLMAP): lost
Molecule: MST2 (from UniProt Q13188) MST2 3TA

- stoichiometry N (human SAV1 WW2 (human)): 2
Molecule: human SAV1 WW2 (from UniProt Q9H4B6 1-383) (domain or fragment)

- Kd (MOB1^33-216): 0.296 µM
Molecule: CSCC[C@H](NC(=O)[C@H](Cc1ccccc1)NC(=O)[C@H](CO)NC(=O)[C@@H]1CCCN1C(=O)[C@H](CCCNC(=N)N)NC(=O)[C@H](CCC(N)=O)NC(=O)[C@@H](NC(=O)[C@H](CCC(N)=O)NC(=O)[C@@H]1CCCN1C(=O)[C@H](CO)NC(=O)[C@@H](NC(=O)[C@H](C)NC(=O)[C@H](CC(N)=O)NC(=O)[C@H](CCCNC(=N)N)NC(=O)[C@H](CCCCN)NC(=O)[C@H](CCSC)NC(=O)[C@@H](NC(=O)CNC(=O)[C@H](CC(=O)O)NC(=O)[C@H](CCC(=O)O)NC(=O)[C@H](CCC(=O)O)NC(=O)[C@H](CCC(=O)O)NC(=O)[C@H](CCC(=O)O)NC(=O)[C@@H](N)CC(=O)O)[C@@H](C)OP(=O)(O)O)[C@@H](C)O)C(C)C)C(=O)N[C@@H](CC(=O)O)C(=O)N[C@@H](Cc1ccc(O)cc1)C(=O)N[C@@H](Cc1ccccc1)C(=O)N[C@@H](CC(=O)O)C(=O)N[C@@H](CCCCN)C(=O)N[C@@H](CCC(N)=O)C(=O)N[C@@H](CC(=O)O)C(=O)O [pT378-MST2^371-401] (H-DEEEEDG[pT]MKRNATSPQVQRPSFMDYFDKQD-OH)

- binding result [1]: binds
B1: GST-SLMAP FHA (residues 1–140) (domain or fragment, human, UniProt Q14BN4 1-140, looked up)
chain: MPSALAIFTCRPNSHPFQERHVYLDEPIKIGRSVARCRPAQNNATFDCKVLSRNHALVWFDHKTGKFYLQDTKSSNGTFINSQRLSRGSEESPPCEILSGDIIQFGVDVTENTRKVTHGCIVSTIKLFLPDGMEARLRSD
notes: SLMAP, human, FHA domain, residues 1-140; also called GST-SLMAP FHA fusion protein; not shown: GST, N-terminal, kept

B2: SAV1-ΔN198 (domain or fragment, human, UniProt Q9H4B6 199-383, looked up)
chain: LPLPPGWSVDWTMRGRKYYIDHNTNTTHWSHPLEREGLPPGWERVESSEFGTYYVDHTNKKAQYRHPCAPSVPRYDQPPPVTYQPQQTERNQSLLVPANPYHTAEIPDWLQVYARAPVKYDHILKWELFQLADLDTYQGMLKLLFMKELEQIVKMYEAYRQALLTELENRKQRQQWYAQQHGKNF
notes: SAV1, human, N-terminal 198 residues deleted (WW1, WW2 and SARAH domains); also called SAV1 ∆N198; SAV1 fragment containing both WW domains and the SARAH domain; source: E. coli BL21 (DE3)-T1R, co-expressed with MST2, purified (glutathione-Sepharose, TEV, Superdex 200); not shown: GST, N-terminal, cleaved
- binding result [2]: binds

B3: SAV1 ∆N198: SAV1 mutant which contains WW1/2 and SARAH domains (protein)
chain: LPLPPGWSVDWTMRGRKYYIDHNTNTTHWSHPLEREGLPPGWERVESSEFGTYYVDHTNKKAQYRHPCAPSVPRYDQPPPVTYQPQQTERNQSLLVPANPYHTAEIPDWLQVYARAPVKYDHILKWELFQLADLDTYQGMLKLLFMKELEQIVKMYEAYRQALLTELENRKQRQQWYAQQHGKNF
modifications: left off: GST, N-terminal, cleaved
notes: SAV1 mutant which contains WW1/2 and SARAH domains
- MST2 activation (T180 autophosphorylation) in vitro (MST2 [3]): could support MST2 auto-activation
- stimulation of MST2 kinase activity toward MOB1 (MST2 [4]): did not stimulate the MST2 kinase activity toward MOB1

- dephosphorylation of MST2 pT180 (1 µM MST2 kinase domain) by 0.1 µM PP2A A-C core in vitro, SAV1 1-90 at the indicated concentrations [5]: 100 µM
B4: SAV1^1-90 (recombinant) (domain or fragment)
chain: MLSRKKTKNEVSKPAEVQGKYVKKETSPLLRNLMPSFIRHGPTIPRRTDICLPDSSPNAFSTSGDVVSRNQSFLRTPIQRTPHEIMRRES

B5: SAV1 1–90: N-terminal fragment of SAV1 (residues 1–90), recombinant, refolded (protein)
chain: MLSRKKTKNEVSKPAEVQGKYVKKETSPLLRNLMPSFIRHGPTIPRRTDICLPDSSPNAFSTSGDVVSRNQSFLRTPIQRTPHEIMRRES
modifications: left off: FLAG, end not stated, kept
- inhibition of PP2A A-C dephosphorylation of MST2 pT180 (PP2A A-C; 15 min pre-incubation with SAV1^1-90 at room temperature, 20 mM Tris pH 8.0, 100 mM NaCl, 30 min): blocked the dephosphorylation of MST2 pT180 by PP2A A-C
- concentration needed for PP2A A-C inhibition (PP2A A-C; "Very high and non-physiological concentrations" needed): 100 µM
- co-fractionation with recombinant PP2A A subunit (PP2A A subunit): co-fractionated
